Legend:
TRAILR1 (human) = TRAILR1 (human) (UniProt O00220); assay: cell-based or functional assay
Fc-CD95 (human) = Fc-CD95 (human) (UniProt P25445); assay: SPR (BIAcore 2000), biotinylated Fc-CD95 on streptavidin chip, ligand in solution, 1:1 model
murine CD95 (murine) = murine CD95 (murine) (UniProt P25446); assay: FACS on MBL2-CD95 cells, anti-Flag mAb M2 and PE anti-mouse IgG
human CD95 (human) [1] = biological target: human CD95 (human) (UniProt P25445); assay: cell-based or functional assay
human CD95 (human) [2] = biological target: human CD95 (human) (UniProt P25445); assay: FACS on KB cells, anti-Flag mAb M2 and PE anti-mouse IgG

Chain of UniProt P25446 (P25446 22-327): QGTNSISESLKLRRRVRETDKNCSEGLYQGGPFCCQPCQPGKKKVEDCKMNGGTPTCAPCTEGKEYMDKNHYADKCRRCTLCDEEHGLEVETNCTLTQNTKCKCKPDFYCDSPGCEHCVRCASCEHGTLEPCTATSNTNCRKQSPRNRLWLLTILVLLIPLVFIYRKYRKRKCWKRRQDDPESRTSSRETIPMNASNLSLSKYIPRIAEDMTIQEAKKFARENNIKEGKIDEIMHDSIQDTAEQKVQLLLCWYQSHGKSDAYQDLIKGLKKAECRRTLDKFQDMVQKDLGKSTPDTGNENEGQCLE
Chain of UniProt O00220 (O00220 24-468): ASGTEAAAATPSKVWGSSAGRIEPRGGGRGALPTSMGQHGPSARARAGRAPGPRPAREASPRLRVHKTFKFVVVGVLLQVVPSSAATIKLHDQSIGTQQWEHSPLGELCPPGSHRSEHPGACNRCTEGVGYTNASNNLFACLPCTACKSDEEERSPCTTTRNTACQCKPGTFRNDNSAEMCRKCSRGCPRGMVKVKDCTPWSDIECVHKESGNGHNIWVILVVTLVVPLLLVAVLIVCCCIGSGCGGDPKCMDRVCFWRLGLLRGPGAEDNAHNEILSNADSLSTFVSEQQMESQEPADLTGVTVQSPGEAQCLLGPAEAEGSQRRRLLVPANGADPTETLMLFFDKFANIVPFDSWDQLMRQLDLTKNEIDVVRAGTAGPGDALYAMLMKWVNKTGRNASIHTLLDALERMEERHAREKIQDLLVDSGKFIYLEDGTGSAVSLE

Row | Kd (Fc-CD95 (human)) [nM] | lowest concentration with significant binding (murine CD95 (murine)) [µg/mL] | lowest concentration with significant binding (human CD95 (human) [2]) [µg/mL] | Substance | cell death of CHX-sensitized KB cells, no crosslinking (crystal violet) (TRAILR1 (human)) [ng/mL] | protection of KB cells from Fc-hCD95L-induced cell death (competition assay) (human CD95 (human) [1]) [ng/mL]
1 |  |  |  | Flag-hTRAIL(95-281) (ligand) | 10 | 
2 | 26 |  |  | Flag-TNC-mCD95L(137-279) (from UniProt P10039 110-139) (ligand) |  | 
3 | 39 | 0.1 | 0.3 | Flag-hCD95L(137-281) (ligand) |  | 50
4 |  |  |  | mCD95L(137-279) (ligand) |  | > 1000

— patent publication EP2009022A1
